These results are taken from paper PMC6873191.

In assay [1] the target is full-length ClpC fused to the T25 fragment of B. pertussis adenylate cyclase (UniProt P37571). The assay can be described thus: bacterial two-hybrid interaction assay (β-gal readout). Particulars: E. coli Δcya strain DHM1, Gp53 fused to T18, ClpC fused to T25, n = 3; for response: parent: est. 21000, read off a plot; for percent of parent: parent: 100.
Assay [2] has as its target full-length ClpC fused to the T25 fragment of B. pertussis adenylate cyclase (B. subtilis) (UniProt P37571). The assay can be described thus: two-hybrid; modified bacterial two-hybrid: MecA-T18 and ClpC-T25 in E. coli DHM1 that holds a plasmid with Gp53 under the L-arabinose-inducible araB promoter; β-gal activity with and without L-arabinose.
The target of assay [3] is C-terminal FLAG-tagged ClpC (B. subtilis) (UniProt P37571).

As to “Gp53 (WT) fused to a fragment of B. pertussis adenylate cyclase for the bacterial two-hybrid assay K101A”, the response in assay [1] came out at 22000 Miller Units.
As for “Gp53 (WT) fused to a fragment of B. pertussis adenylate cyclase for the bacterial two-hybrid assay K101E”, the response in assay [1] amounted to 23000 Miller Units.
As for “Gp53 (WT) fused to a fragment of B. pertussis adenylate cyclase for the bacterial two-hybrid assay L83A”, the response in assay [1] turned out to be 20000 Miller Units.
For “Gp53 (WT) fused to a fragment of B. pertussis adenylate cyclase for the bacterial two-hybrid assay L95A”, in assay [1], the percent of parent worked out at 48% and the response was 10000 Miller Units.
Consider “Gp53 (WT) fused to a fragment of B. pertussis adenylate cyclase for the bacterial two-hybrid assay R94A”, for which the response in assay [1] is 21000 Miller Units.
For the substance “Gp53 (WT) fused to a fragment of B. pertussis adenylate cyclase for the bacterial two-hybrid assay R94E”, in assay [1], the percent of parent was 37% and the response turned out to be 7700 Miller Units.
Turning to “Gp53 (WT) fused to a fragment of B. pertussis adenylate cyclase for the bacterial two-hybrid assay V87A”, in assay [1], the percent of parent turned out to be 44% and the response came to 9300 Miller Units.
Regarding “Gp53 expressed from pSCBAD-Gp53 under the L-arabinose-inducible araB promoter (natural protein)”, the fold reduction of the β-gal activity of MecA-ClpC on induction of Gp53 in assay [2] was 3 fold.
Regarding “N-terminal His6-tagged Gp53 of phage SPO1 (natural protein)”, in assay [3], the β-casein (3 μM) left intact after 90 min of in vitro degradation by ClpCP with MecA, with Gp53 against without Gp53 turned out to be 10 fold.
